Results published in paper PMC4239318, “Quantitative investigation of the affinity of human respiratory syncytial virus phosphoprotein C-terminus binding to nucleocapsid protein” (Virology Journal, 2014).
Several values for one entry are separate records, joined by “and”; a condition that tells them apart may be missing. Identical values can stand only once. Square brackets hold non-standard residues; d marks the D form. Ends that are not written are not given here. Peptide text beside a SMILES is read from it. * marks the point of attachment. BODIPY(FL) = CC1=CC(C)=[N+]2C1=Cc1ccc(CCC(=O)*)n1[B-]2(F)F; pS = N[C@@H](COP(=O)(O)O)C(=O)O

Key:
RSV-N(13-391) [1] = biological target: T1, RSV-N(13-391) (Human respiratory syncytial virus A, UniProt P03418); assay: biochemical; settings: from ΔG = RT ln Kd and IC50 = 2 × Kd; 10 mM Tris-HCl pH 7.5 at 21°C; approximate
Method: (§1) Samples of 10 μl containing peptides and proteins as indicated were prepared in buffer composed of 10 mM Tris-HCl (pH 7.5) +0.01% Brij-35 detergent (Pierce Surfact-Amps-35, Thermo Fisher Scientific, Rockford, IL) in low-volume 384-well black polystyrene assay plates (Thermo Fisher Scientific, Hudson, NH). After a 5 minute incubation, fluorescence anisotropy was measured with a Pherastar plate reader (BMG Labtech, Cary, NC) equipped with a filter module having a 485 nm excitation filter and 520 nm emission filters with polarizers. The focal height was 10.8 mm. Each measurement used 50 flashes. The parallel and perpendicular detector gains were set to 392 and 366 in order to produce an anisotropy of about 0.03 in the absence of binding.
The averages of triplicate anisotropy measurements made at each competitor concentration were used to calculate % inhibition using the equation %inhibition=1001–r–rmin/rmax–rmin where r is the anisotropy at the competitor concentration, rmin is the anisotropy with no RSV-N(13-391), and rmax is the anisotropy with no competititor.
(§2) All fluorescence anisotropy measurements were performed at ambient temperature, approximately 21°C.
For the BP5 competition assay, the P protein storage buffer was replaced by repeated concentration using centrifugal ultrafiltration with a Millipore Ultrafree 0.5 unit with Biomax-10 membrane (EMD Millipore, Billerica, MA) and dilution with 10 mM Tris-HCl (pH 7.5). The protein concentration was determined by the method of Bradford using bovine serum albumin as the standard. Serial dilutions of P were prepared in 10 mM Tris-HCl (pH 7.5) +0.01% Brij-35.

RSV-N(13-391) [2] = biological target: T1, RSV-N(13-391)
Method: as §1
The averages of triplicate fluorescence anisotropy measurements made at each RSV-N(13-391) concentration were fit to the equation y=yo+aN/Kd+N where y is the anisotropy, yo is the anisotropy of peptide alone, [N] is the RSV-N(13-391) concentration, and yo + a is the anisotropy of fully bound peptide.
as §2

15N-labeled N(31-252) = biological target: T2, 15N-labeled N(31-252) (Human respiratory syncytial virus A, UniProt P03418); assay: 2-D NMR [15N,1H] TROSY titration, chemical shift perturbation; type: binding, human respiratory syncytial virus (strain A2); settings: 0.15 mM 15N N(31-252); 25 mM HEPES pH 7.5, 100 mM NaCl, 1 mM DTT, 1 mM EDTA; 298 K; global best fit ± standard error of fit; read-out: Kd measured by NMR
T2 construct: His6 (N); TEV protease cleavage recognition site (N); made in house; host or cells: E. coli BL21(DE3)pLysS, M9 minimal medium with [15N]; NH4Cl
Method: NMR spectra were acquired at 298 K with a 600 MHz NMR instrument (Bruker, Billerica MA) equipped with an AVANCE III console and a triple-resonance cryogenic probe. Samples were at pH 7.5 in a 25 mM HEPES buffer containing 100 mM NaCl, 1 mM dithiothreitol, and 1 mM EDTA. The concentration of ^15N labeled RSV N(31-252) was 0.15 mM. Two-dimensional [^15N, ^1H] transverse relaxation optimized spectroscopy (TROSY) experiments were recorded with increasing ligand concentration. Evolution times were approximately 53 ms in the ^1H dimension and 29 ms in the ^15N dimension. The total acquisition time was 28 min per experiment.
To estimate the dissociation constant (Kd) from NMR experiments, ^15N-RSV N(31-252) was titrated with a range of ligand concentrations. The weighted average of chemical shift changes (Δδ(N, H)obs) is calculated using the following equation: ΔδN,Hobs=ΔδHN^2+ΔδΝ/5^2 where ΔδHN and ΔδN are the chemical shift changes of amide protons and nitrogens, respectively. Then Δδ(N, H)obs data were fitted by non-linear regression globally against the total concentration of the subtrate (LT) with the equation: ΔδN,Hobs=ΔδN,HmaxKd+LT+ET‐Kd+LT+ET^2−4LTET/2ET where Δδ(N, H)max is the maximum chemical shift difference, ET is the total concentration of N(31-352) in the solution, and LT is the total concentration of ligand.

[3] = biological target: T3, RSV N(13-391), N-terminally truncated nucleocapsid protein (human respiratory syncytial virus, …, UniProt P03418 13-391); assay: fluorescence polarisation; fluorescence anisotropy, direct binding; 100 nM BP1 or 25 nM BP5, N(13-391) varied; 10 mM Tris-HCl pH 7.5, 0.01% Brij-35; about 21 °C; settings: both partners purified
T3 construct: source: E. coli BL21(DE3)pLysS, purified (Ni2+ chelating, Q-Sepharose, Superdex 200)
T3 sequence: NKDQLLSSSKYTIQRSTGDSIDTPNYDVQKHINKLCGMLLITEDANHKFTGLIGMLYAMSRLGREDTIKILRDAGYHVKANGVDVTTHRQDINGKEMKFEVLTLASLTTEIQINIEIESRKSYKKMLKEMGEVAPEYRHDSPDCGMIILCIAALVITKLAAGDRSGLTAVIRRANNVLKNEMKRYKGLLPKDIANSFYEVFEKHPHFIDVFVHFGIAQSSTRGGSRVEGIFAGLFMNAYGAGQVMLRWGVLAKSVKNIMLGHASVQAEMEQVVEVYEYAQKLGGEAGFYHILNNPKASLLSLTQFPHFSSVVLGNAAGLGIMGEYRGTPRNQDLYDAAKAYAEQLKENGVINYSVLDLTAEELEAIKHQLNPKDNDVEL

[4] = biological target: T3, RSV N(13-391), N-terminally truncated …; assay: fluorescence polarisation; settings: both partners purified
[5] = biological target: T3, RSV N(13-391), N-terminally truncated …; assay: SPR; Biacore T200; His10-P immobilised on NTA chip (nickel capture, amine coupling); 100 nM N(13-391) mixed with peptide series; 20 mM HEPES-NaOH pH 7.5, 100 mM NaCl, 1 mM EDTA, 1 mM TCEP, 0.005% Tween 20, 1% DMSO; settings: both partners purified
[6] = biological target: T3, RSV N(13-391), N-terminally truncated …; assay: fluorescence polarisation; fluorescence anisotropy, competition with 25 nM BP5 and 75 nM N(13-391), competitor varied; 10 mM Tris-HCl pH 7.5, 0.01% Brij-35; about 21 °C; settings: both partners purified
[7] = biological target: T3, RSV N(13-391), N-terminally truncated …; assay: as above; settings: both partners purified; remark: listed apart in the source
[8] = biological target: T4, RSV N(31-252), nucleocapsid construct consisting of residues 31-252 (human respiratory syncytial virus, …, UniProt P03418 31-252); assay: NMR titration; 2-D [15N,1H] TROSY of 0.15 mM 15N-labeled N(31-252) with increasing ligand; 25 mM HEPES pH 7.5, 100 mM NaCl, 1 mM DTT, 1 mM EDTA; 298 K; settings: both partners purified
T4 construct: source: E. coli BL21(DE3)pLysS, purified (Ni2+ chelating, Superdex 200)
T4 sequence: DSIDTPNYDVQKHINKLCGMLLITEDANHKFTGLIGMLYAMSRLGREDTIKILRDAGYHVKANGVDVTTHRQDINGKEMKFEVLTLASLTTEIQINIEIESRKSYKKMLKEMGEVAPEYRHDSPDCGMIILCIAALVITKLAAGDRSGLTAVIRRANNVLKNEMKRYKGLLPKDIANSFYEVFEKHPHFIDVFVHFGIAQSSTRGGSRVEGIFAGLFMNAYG

DSDNDLSLEDF
ΔG of binding to RNA-free N(13-391) (RSV-N(13-391) [1]): -6.9 kcal/mol

Cc1cc(C)n2c1C=C1C=CC(CCC(=O)N[C@@H](CC(=O)O)C(=O)N[C@@H](COP(=O)(O)O)C(=O)N[C@@H](CC(=O)O)C(=O)N[C@@H](CC(N)=O)C(=O)N[C@@H](CC(=O)O)C(=O)N[C@@H](CC(C)C)C(=O)N[C@@H](COP(=O)(O)O)C(=O)N[C@@H](CC(C)C)C(=O)N[C@@H](CCC(=O)O)C(=O)N[C@@H](CC(=O)O)C(=O)N[C@@H](Cc3ccccc3)C(=O)O)=[N+]1[B-]2(F)F [BP5] ({BODIPY(FL)}-D[pS]DNDL[pS]LEDF-OH)
Effect of KCl concentration (ionic strength) on affinity for N(13-391) (RSV-N(13-391) [2]; Kds measured with N(13-391) 1.95 to 2000 nM in triplicate, Figure 1B): diminished as the ionic strength increased | affinity relative to unphosphorylated peptide BP1 (RSV-N(13-391) [2]; ratio of Kds for N(13-391)): about 10 times

CC(C)C[C@H](NC(=O)[C@H](COP(=O)(O)O)NC(=O)[C@H](CC(C)C)NC(=O)[C@H](CC(=O)O)NC(=O)[C@H](CC(N)=O)NC(=O)[C@H](CC(=O)O)NC(=O)[C@H](COP(=O)(O)O)NC(=O)[C@@H](N)CC(=O)O)C(=O)N[C@@H](CCC(=O)O)C(=O)N[C@@H](CC(=O)O)C(=O)N[C@@H](C)C(=O)O [D(pS)DNDL(pS)LEDA]
ΔG of binding to RNA-free N(13-391) (RSV-N(13-391) [1]): -6.0 kcal/mol

N[C@@H](CC(=O)O)C(=O)N[C@@H](Cc1ccccc1)C(=O)O [DF, Asp-Phe, reference compound] (H-Asp-Phe-OH)
Kd (15N-labeled N(31-252)): 2600 µM

CC(C)C[C@H](NC(=O)[C@H](COP(=O)(O)O)NC(=O)[C@H](CC(C)C)NC(=O)[C@H](CC(=O)O)NC(=O)[C@H](CC(N)=O)NC(=O)[C@H](CC(=O)O)NC(=O)[C@H](COP(=O)(O)O)NC(=O)[C@@H](N)CC(=O)O)C(=O)N[C@@H](CCC(=O)O)C(=O)N[C@@H](CC(=O)O)C(=O)N[C@@H](Cc1ccccc1)C(=O)O [D(pS)DNDL(pS)LEDF] (H-D[pS]DNDL[pS]LEDF-OH)
ΔG of binding to RNA-free N(13-391) (RSV-N(13-391) [1]): -8.7 kcal/mol

B1: BP1, BODIPY-FL labeled peptide 1 (DSDNDLSLEDF) (peptide)
peptide: {BODIPY(FL)}-DSDNDLSLEDF
notes: C-terminal 11 residues (231-241) of RSV phosphoprotein P; C-terminus uncapped; source: synthetic peptide (Biopeptide Co.), labelled with BODIPY FL SSE, purified on Sephadex LH-20
Kd [3]: 0.76 µM

B2: D(pS)DNDL(pS)LEDA (doubly phosphorylated P C-terminal peptide, C-terminal Phe changed to Ala) (peptide)
peptide: D[pS]DNDL[pS]LEDA
notes: source: synthetic peptide (Biopeptide Co.)
IC50 [4]: 69 µM

B3: DSDNDLSLEDA (unphosphorylated P C-terminal peptide, C-terminal Phe changed to Ala) (peptide)
peptide: DSDNDLSLEDA
notes: also called Ala-modified peptide; source: synthetic peptide (Biopeptide Co.)
IC50 [4]: > 200 µM

B4: peptide 5, D(pS)DNDL(pS)LEDF (doubly phosphorylated P C-terminal peptide) (peptide)
peptide: D[pS]DNDL[pS]LEDF
notes: residues 231-241 of RSV phosphoprotein P; N- and C-termini uncapped; source: synthetic peptide (Biopeptide Co.)
IC50 [5]: 13.6 µM | Kd [6]: ~0.34 µM | IC50 [7]: 0.61 µM and 0.74 µM | Kd [8]: 74 µM

B5: peptide 1, DSDNDLSLEDF (unphosphorylated P C-terminal peptide) (peptide)
peptide: DSDNDLSLEDF
notes: as for B4
IC50 [5]: 230 µM | Kd [6]: ~7.6 µM | IC50 [7]: 15.3 µM

B6: BP5, BODIPY-FL labeled peptide 5 (D(pS)DNDL(pS)LEDF) (peptide)
peptide: {BODIPY(FL)}-D[pS]DNDL[pS]LEDF
notes: as for B1
Kd [3]: 0.078 µM

B7: D(pS)DNDLSLEDF (P C-terminal peptide phosphorylated on the N-terminal serine) (peptide)
peptide: D[pS]DNDLSLEDF
notes: as for B4
IC50 [5]: 44 µM | IC50 [7]: 2.17 µM

B8: DSDNDL(pS)LEDF (P C-terminal peptide phosphorylated on the C-terminal serine) (peptide)
peptide: DSDNDL[pS]LEDF
notes: as for B4
IC50 [5]: 31 µM | IC50 [7]: 1.51 µM
